{"source": "patent US20240392015A1", "about": "(OREGON HEALTH AND SCIENCE UNIVERSITY, published 2024)", "binders": {"B1": {"name": "leronlimab (human IgG4 Fc) (antibody, V domains shown)", "VH": "EVQLVESGGGLVKPGGSLRLSCAASGYTFSNYWIGWVRQAPGKGLEWIGDIYPGGNYIRNNEKFKDKTTLSADTSKNTAYLQMNSLKTEDTAVYYCGSSFGSNYVFAWFTYWGQGTLVTVSS", "VL": "DIVMTQSPLSLPVTPGEPASISCRSSQRLLSSYGHTYLHWYLQKPGQSPQLLIYEVSNRFSGVPDRFSGSGSGTDFTLKISRVEAEDVGVYYCSQSTHVPLTFGQGTKVEIK", "notes": "also called PRO140; PRO 140"}, "B2": {"name": "macaque IgG4 LS leronlimab (antibody, V domains shown)", "VH": "B1 VH", "VL": "DIVMTQSPLSLPVTPGEPASISCRSSQRLLSSYGHTYLHWYLQKPGQSPQLLIYEVSNRFSGVPDRFSGSGSGTDFTLKISRVEAEDVGVYYCSQSTHVPLTFGQGTKVEIKR", "notes": "also called MacLS; macaque IgG4 LS variant"}}, "key": {"[1]": {"target": "T1, CCR5 on CD4+ T cells of rhesus macaques (rhesus macaque, UniProt P61813 1-352)", "T1 construct": "also called surface CCR5; CD195", "assay": "CCR5 receptor occupancy by flow cytometry on blood CD4+ T cells after a single 10 mg/kg s.c. dose in rhesus macaques"}, "[2]": {"target": "T1, CCR5 on CD4+ T cells of rhesus macaques", "assay": "CCR5 receptor occupancy by flow cytometry on blood, rectal and vaginal CD4+ T cells after a single 10 mg/kg s.c. dose in rhesus macaques"}}}
{"binder": "B1", "values": [{"measurement": "binding result", "setting": "[1]", "result": "binds"}]}
{"binder": "B2", "values": [{"measurement": "binding result", "setting": "[2]", "result": "binds"}]}
